Tests used:
[1] = test system: NC(=O)c1ccc[n+]([C@@H]2O[C@H](COP(=O)(O)OP(=O)(O)OC[C@H]3O[C@@H](n4cnc5c(N)ncnc54)[C@H](O)[C@@H]3O)[C@@H](O)[C@H]2O)c1; assay: purified protein; conditions: apparent, oxidation direction, 40 mM 3-HPS, 50 mM CAPSO pH 9.5, RT
O=S(=O)(O)CCCO = assay: purified protein; conditions: apparent, oxidation direction, 4 mM NAD+, 50 mM CAPSO pH 9.5, RT
[2] = biological target: T1, HpfX (EgHpfX), 3-sulfopropionaldehyde dehydrogenase (Enterococcus gilvus, UniProt R2XKF7); assay: LC-MS of product 3-SPC, HpfD-coupled; type: biochemical; conditions: 3-SPA made in situ by HpfD from 40 mM 3-HPS; 4 mM NAD+, 0.5 mM CoA, CAPSO pH 9.5, RT
T1 construct: gene I592_01329
T1 sequence (R2XKF7 1-455): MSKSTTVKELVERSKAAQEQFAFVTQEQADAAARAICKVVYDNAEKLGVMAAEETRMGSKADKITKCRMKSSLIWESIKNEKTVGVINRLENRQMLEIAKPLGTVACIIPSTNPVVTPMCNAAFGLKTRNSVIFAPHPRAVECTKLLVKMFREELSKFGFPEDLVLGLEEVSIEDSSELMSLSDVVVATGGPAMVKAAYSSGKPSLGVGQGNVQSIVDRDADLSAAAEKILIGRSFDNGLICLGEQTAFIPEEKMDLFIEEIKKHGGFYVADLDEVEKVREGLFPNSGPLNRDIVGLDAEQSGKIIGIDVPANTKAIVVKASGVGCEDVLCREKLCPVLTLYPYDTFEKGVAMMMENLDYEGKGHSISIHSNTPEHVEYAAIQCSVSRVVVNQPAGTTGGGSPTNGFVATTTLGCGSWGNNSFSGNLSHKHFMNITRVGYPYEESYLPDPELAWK

[3] = biological target: T1, HpfX (EgHpfX), 3-sulfopropionaldehyde dehydrogenase; assay: spectrophotometric NADH consumption, A340, HpfYZ-coupled; type: biochemical; conditions: reduction of 3-SPC made in situ by HpfYZ; 0.4 mM NADH, 10 mM 3-SP, 2 mM ATP, 0.4 mM CoA, 10 mM MgCl2, Tris pH 7.5, RT
[4] = substrate: CC(C)(COP(=O)(O)OP(=O)(O)OC[C@H]1O[C@@H](n2cnc3c(N)ncnc32)[C@H](O)[C@@H]1OP(=O)(O)O)[C@@H](O)C(=O)NCCC(=O)NCCS; assay: PK-LDH coupled spectrophotometric assay, A340; type: biochemical, Enterococcus gilvus; conditions: apparent, 2 mM 3-SP, 2 mM ATP, 10 mM MgCl2, 50 mM KCl, Tris-HCl pH 7.5, RT
[5] = substrate: Nc1ncnc2c1ncn2[C@@H]1O[C@H](COP(=O)(O)OP(=O)(O)OP(=O)(O)O)[C@@H](O)[C@H]1O; assay: PK-LDH coupled spectrophotometric assay, A340; type: biochemical, Enterococcus gilvus; conditions: apparent, 2 mM 3-SP, 0.4 mM CoA, 10 mM MgCl2, 50 mM KCl, Tris-HCl pH 7.5, RT
[6] = substrate: O=C(O)CCS(=O)(=O)O; assay: PK-LDH coupled spectrophotometric assay, A340; type: biochemical, Enterococcus gilvus; conditions: apparent, 2 mM ATP, 0.4 mM CoA, 10 mM MgCl2, 50 mM KCl, Tris-HCl pH 7.5, RT

HpfD (EgHpfD), 3-sulfopropionaldehyde reductase (Enterococcus gilvus ATCC BAA-350)
Km [1]: 640 ± 90 µM | kcat [1]: 20.87 ± 0.84 s⁻¹ | Km (O=S(=O)(O)CCCO): 4970 ± 570 µM | kcat (O=S(=O)(O)CCCO): 15.30 ± 0.37 s⁻¹

O=CCCS(=O)(=O)O [3-SPA]
LC-MS of product 3-SPC, HpfD-coupled [2]: The ability of the HpfX to oxidize 3-SPA into 3-SPC was ascertained

NC(=O)C1=CN([C@@H]2O[C@H](COP(=O)(O)OP(=O)(O)OC[C@H]3O[C@@H](n4cnc5c(N)ncnc54)[C@H](O)[C@@H]3O)[C@@H](O)[C@H]2O)C=CC1 [NADH]
spectrophotometric NADH consumption, A340, HpfYZ-coupled [3]: indicating reduction of 3-SPC accompanied by the consumption of NADH

B1: HpfYZ (EgHpfY / EgHpfZ), 3-sulfopropionate-CoA ligase (Enterococcus gilvus ATCC BAA-350) (protein)
chain 1: MDYLEIEGKAQLERFGIPINESILLTGDNIPEDIPYPCVLKGQILSGKRGKAGAVRVVKTRAELIEAKEIIEQIKINDQVMEGVIACGFLPIEEEYYLGMTLDVKNRAMIMLFTPFGGMDIEELAETDPEKLLRFDCTEGFNAEKFKKASTIFELPEKRLNLVVDIAEKLSEACFALDATTIEINPLALLKDESLMAIDAKLVIDDNALYRQGDYTILPRTVQEKSLQEIEAEQYDLTYVEVDPKGNIGTMAGGAGIGMATMDTVFHYGGRVNNFLDLGGGVTSEKTYQAMRILLENENTDYILINIFGGINNCADMAEGITRAYKESGISKTVVVKSRGFNQEQGWSMYKELGFPQAKYGTTDEAVQILLALKGAK
chain 2: MSILINQETELLIIGITGKQGRIHAKRTIESGAKLRAGVAPGKNGEMVEGIPVFESVEDARKEFPQIRAAMLLTPPRFVKDAAIQALQSGIELLVIITEFVPVLDTLEIVTKAKKLGAKVVGPNTIGVIAPGKSKLGIMPADIYGKGRIGIISRSGTLTHETASNLTFKGYGLSTCVGIGGDSIVGMDHADVLELFANDDETDAIVLIGEIGGTSEEMAAAKIKELNIQKPICAYIAGMHAPENKKMGHAGAIVSGNMGTVKSKVEALEDAGVTVCPTLGKIVEFMEKTNSQTNGKLRSLEPKVDASILQT
notes: N-terminal His6-TEV tagged HpfY co-expressed with untagged HpfZ in E. coli BL21(DE3), co-purified 1:1 (predicted heterodimer); codon-optimized genes
Km [4]: 110 ± 30 µM | kcat [4]: 0.45 ± 0.04 s⁻¹ | Km [5]: 180 ± 140 µM | kcat [5]: 0.33 ± 0.01 s⁻¹ | Km [6]: 510 ± 70 µM | kcat [6]: 0.38 ± 0.01 s⁻¹

Source: publication PMC11489063, “Study of sulfoglycolysis in Enterococcus gilvus reveals a widespread bifurcated pathway for dihydroxypropanesulfonate degradation” (iScience, 2024)
